{"source": "paper PMC8163081", "about": "(Science Advances, 2021)", "key": {"hd-α-actinin-2 (human) [1]": {"molecular_target": "hd-α-actinin-2 (human) (UniProt P35609)", "sequence (P35609 19-894)": "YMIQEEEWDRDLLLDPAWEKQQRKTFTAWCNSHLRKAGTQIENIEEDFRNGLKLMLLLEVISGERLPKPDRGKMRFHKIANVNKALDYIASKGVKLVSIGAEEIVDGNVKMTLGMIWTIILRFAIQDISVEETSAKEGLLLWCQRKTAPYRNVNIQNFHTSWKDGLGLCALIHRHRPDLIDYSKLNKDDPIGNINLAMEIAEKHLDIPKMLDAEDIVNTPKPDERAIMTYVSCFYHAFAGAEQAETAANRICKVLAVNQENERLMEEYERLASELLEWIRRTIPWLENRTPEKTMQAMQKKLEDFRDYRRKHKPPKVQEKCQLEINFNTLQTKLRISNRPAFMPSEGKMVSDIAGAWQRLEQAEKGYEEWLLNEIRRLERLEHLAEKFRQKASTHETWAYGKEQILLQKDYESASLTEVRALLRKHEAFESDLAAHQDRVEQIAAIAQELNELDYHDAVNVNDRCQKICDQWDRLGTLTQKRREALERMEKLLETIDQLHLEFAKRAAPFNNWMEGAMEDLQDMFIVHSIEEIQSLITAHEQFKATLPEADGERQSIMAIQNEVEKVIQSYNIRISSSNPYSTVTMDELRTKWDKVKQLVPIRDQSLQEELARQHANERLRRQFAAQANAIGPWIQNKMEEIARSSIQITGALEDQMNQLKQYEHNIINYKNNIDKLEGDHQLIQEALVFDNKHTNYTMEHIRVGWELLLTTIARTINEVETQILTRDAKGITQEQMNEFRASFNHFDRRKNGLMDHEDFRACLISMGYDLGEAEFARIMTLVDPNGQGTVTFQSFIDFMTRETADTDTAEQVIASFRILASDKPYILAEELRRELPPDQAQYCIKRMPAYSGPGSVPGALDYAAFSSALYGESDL", "assay": "ITC"}, "hd-α-actinin-2 (human) [2]": {"molecular_target": "hd-α-actinin-2 (human) (UniProt P35609)", "assay": "SEC-MALS"}, "α-actinin-2 (human)": {"molecular_target": "α-actinin-2 (human) (UniProt P35609)", "sequence (P35609 whole entry)": "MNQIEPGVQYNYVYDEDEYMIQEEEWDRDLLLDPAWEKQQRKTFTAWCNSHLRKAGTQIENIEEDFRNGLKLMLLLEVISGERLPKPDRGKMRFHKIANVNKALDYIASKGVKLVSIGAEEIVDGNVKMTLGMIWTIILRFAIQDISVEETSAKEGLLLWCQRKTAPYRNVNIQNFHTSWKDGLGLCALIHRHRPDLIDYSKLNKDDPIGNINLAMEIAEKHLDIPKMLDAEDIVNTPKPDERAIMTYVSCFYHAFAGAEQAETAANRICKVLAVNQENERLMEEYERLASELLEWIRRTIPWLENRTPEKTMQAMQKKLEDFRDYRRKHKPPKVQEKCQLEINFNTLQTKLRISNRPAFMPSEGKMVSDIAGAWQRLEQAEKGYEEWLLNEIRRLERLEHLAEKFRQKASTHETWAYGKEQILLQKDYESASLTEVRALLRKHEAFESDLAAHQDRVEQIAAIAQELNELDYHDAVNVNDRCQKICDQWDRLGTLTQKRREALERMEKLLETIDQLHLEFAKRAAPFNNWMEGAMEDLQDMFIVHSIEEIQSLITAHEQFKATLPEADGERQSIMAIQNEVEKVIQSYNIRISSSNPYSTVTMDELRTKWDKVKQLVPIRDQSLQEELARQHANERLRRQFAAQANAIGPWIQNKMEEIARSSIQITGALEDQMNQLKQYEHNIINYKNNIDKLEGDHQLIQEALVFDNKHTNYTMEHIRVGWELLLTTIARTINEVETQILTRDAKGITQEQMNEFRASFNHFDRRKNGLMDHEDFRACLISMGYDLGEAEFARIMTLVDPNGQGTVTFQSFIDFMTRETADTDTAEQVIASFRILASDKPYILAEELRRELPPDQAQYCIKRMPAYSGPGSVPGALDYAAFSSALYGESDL", "assay": "ITC"}, "α-actinin-2 [3]": {"molecular_target": "T1, α-actinin-2 (human, UniProt P35609 1-894)", "T1 sequence (P35609 whole entry)": "as above", "assay": "ITC"}, "α-actinin-2 [4]": {"molecular_target": "T1, α-actinin-2", "assay": "SEC-MALS"}, "[5]": {"molecular_target": "α-actinin-2-yellow fluorescent protein (YFP) (human, UniProt P35609 1-894)", "sequence (P35609 whole entry)": "as above", "assay": "FRET or BRET"}, "α-actinin-2 [6]": {"molecular_target": "T1, α-actinin-2", "assay": "peptide or protein array"}, "[7]": {"molecular_target": "human (nonmuscle) α-actinin-1 (human, UniProt P12814 1-892)", "sequence (P12814 whole entry)": "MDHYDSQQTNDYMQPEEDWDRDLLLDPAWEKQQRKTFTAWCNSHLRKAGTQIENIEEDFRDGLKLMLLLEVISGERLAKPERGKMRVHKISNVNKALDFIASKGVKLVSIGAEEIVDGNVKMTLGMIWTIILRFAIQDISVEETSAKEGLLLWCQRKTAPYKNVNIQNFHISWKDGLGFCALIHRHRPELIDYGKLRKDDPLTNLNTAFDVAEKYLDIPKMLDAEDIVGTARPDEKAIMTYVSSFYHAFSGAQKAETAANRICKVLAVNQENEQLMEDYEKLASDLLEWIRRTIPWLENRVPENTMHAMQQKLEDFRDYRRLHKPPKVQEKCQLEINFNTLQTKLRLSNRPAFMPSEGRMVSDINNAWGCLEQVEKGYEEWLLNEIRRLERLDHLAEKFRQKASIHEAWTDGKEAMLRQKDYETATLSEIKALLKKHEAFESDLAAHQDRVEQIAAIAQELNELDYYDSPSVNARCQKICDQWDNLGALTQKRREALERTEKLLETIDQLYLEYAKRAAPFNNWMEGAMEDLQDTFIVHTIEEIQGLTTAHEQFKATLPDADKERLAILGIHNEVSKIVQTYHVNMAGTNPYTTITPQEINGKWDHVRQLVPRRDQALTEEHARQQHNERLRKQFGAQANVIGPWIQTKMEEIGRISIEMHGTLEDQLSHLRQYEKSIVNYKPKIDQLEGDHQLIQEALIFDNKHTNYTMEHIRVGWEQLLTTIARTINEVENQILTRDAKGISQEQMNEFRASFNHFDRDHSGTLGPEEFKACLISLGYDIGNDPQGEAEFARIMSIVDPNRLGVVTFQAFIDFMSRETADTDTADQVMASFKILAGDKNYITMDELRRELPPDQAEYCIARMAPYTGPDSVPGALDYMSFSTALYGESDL", "assay": "SEC-MALS"}, "rod-α-actinin-2": {"molecular_target": "rod-α-actinin-2 (human, UniProt P35609 274-746)", "sequence (P35609 274-746)": "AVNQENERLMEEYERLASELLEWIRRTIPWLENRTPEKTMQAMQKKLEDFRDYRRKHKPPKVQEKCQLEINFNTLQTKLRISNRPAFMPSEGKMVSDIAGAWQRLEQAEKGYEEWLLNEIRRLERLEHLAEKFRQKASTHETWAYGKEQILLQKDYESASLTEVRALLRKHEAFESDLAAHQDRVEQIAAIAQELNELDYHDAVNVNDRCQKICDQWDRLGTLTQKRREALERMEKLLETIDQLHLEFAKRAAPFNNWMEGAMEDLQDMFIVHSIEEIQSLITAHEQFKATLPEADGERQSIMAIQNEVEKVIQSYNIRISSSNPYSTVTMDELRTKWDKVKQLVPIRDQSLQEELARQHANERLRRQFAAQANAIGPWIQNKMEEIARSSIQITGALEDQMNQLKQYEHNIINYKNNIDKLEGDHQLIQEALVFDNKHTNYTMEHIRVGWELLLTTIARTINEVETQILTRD", "assay": "SEC-MALS"}}}
{"molecule": "Δ91-FATZ-1 (from UniProt Q9NP98 92-299) (domain or fragment)", "values": [{"measurement": "Kd", "setting": "hd-α-actinin-2 (human) [1]", "result": 260, "unit": "nM"}, {"measurement": "stoichiometry N (Δ91-FATZ-1 per hd-α-actinin-2)", "setting": "hd-α-actinin-2 (human) [1]", "result": 1}, {"measurement": "stoichiometry N (Δ91-FATZ-1 per hd-α-actinin-2)", "setting": "hd-α-actinin-2 (human) [2]", "result": 1}]}
{"molecule": "trx-Δ91-FATZ-1 (domain or fragment)", "values": [{"measurement": "Kd", "setting": "α-actinin-2 (human)", "result": 1500, "unit": "nM"}, {"measurement": "stoichiometry N", "setting": "α-actinin-2 (human)", "result": 1.3}]}
{"molecule": "Δ91-FATZ-1-trx (domain or fragment)", "values": [{"measurement": "Kd1 (two-site binding model, first binding event)", "setting": "α-actinin-2 (human)", "result": 7.8, "unit": "nM"}, {"measurement": "Kd2 (two-site binding model, second binding event)", "setting": "α-actinin-2 (human)", "result": 408, "unit": "nM"}]}
{"molecule": "PKYKSFNRTAMPYGGYEKASKRMTF (peptide, UniProt Q9NP98 216-240, looked up)", "note": "[LM2 peptide]", "values": [{"measurement": "Kd", "setting": "α-actinin-2 [3]", "result": 315, "unit": "nM"}, {"measurement": "stoichiometry N", "setting": "α-actinin-2 [3]", "result": 1.9}]}
{"molecule": "FATZ-1 (filamin-, α-actinin-, and telethonin-binding protein of the Z-disk) (natural protein, human, UniProt Q9NP98 1-299, looked up) MPLSGTPAPNKKRKSSKLIMELTGGGQESSGLNLGKKISVPRDVMLEELSLLTNRGSKMFKLRQMRVEKFIYENHPDVFSDSSMDHFQKFLPTVGGQLGTAGQGFSYSKSNGRGGSQAGGSGSAGQYGSDQQHHLGSGSGAGGTGGPAGQAGRGGAAGTAGVGETGSGDQAGGEGKHITVFKTYISPWERAMGVDPQQKMELGIDLLAYGAKAELPKYKSFNRTAMPYGGYEKASKRMTFQMPKFDLGPLLSEPLVLYNQNLSNRPSFNRTPIPWLSSGEPVDYNVDIGIPLDGETEEL", "values": [{"measurement": "stoichiometry N", "setting": "α-actinin-2 [4]", "result": "2 FATZ molecules per α-actinin-2 dimer"}]}
{"molecule": "ECFP-tagged FATZ-1 (WT FATZ-1) (natural protein, human, UniProt Q9NP98 1-299, looked up) MPLSGTPAPNKKRKSSKLIMELTGGGQESSGLNLGKKISVPRDVMLEELSLLTNRGSKMFKLRQMRVEKFIYENHPDVFSDSSMDHFQKFLPTVGGQLGTAGQGFSYSKSNGRGGSQAGGSGSAGQYGSDQQHHLGSGSGAGGTGGPAGQAGRGGAAGTAGVGETGSGDQAGGEGKHITVFKTYISPWERAMGVDPQQKMELGIDLLAYGAKAELPKYKSFNRTAMPYGGYEKASKRMTFQMPKFDLGPLLSEPLVLYNQNLSNRPSFNRTPIPWLSSGEPVDYNVDIGIPLDGETEEL", "values": [{"measurement": "FRET ratio", "setting": "[5]", "result": 0.085}]}
{"molecule": "FATZ-2 (natural protein, human, UniProt Q9NPC6 1-264, looked up) MLSHNTMMKQRKQQATAIMKEVHGNDVDGMDLGKKVSIPRDIMLEELSHLSNRGARLFKMRQRRSDKYTFENFQYQSRAQINHSIAMQNGKVDGSNLEGGSQQAPLTPPNTPDPRSPPNPDNIAPGYSGPLKEIPPEKFNTTAVPKYYQSPWEQAISNDPELLEALYPKLFKPEGKAELPDYRSFNRVATPFGGFEKASRMVKFKVPDFELLLLTDPRFMSFVNPLSGRRSFNRTPKGWISENIPIVITTEPTDDTTVPESEDL", "values": [{"measurement": "stoichiometry N", "setting": "α-actinin-2 [4]", "result": "2 FATZ molecules per α-actinin-2 dimer"}]}
{"molecule": "ECFP-tagged FATZ-2 (WT) (natural protein, human, UniProt Q9NPC6 1-264, looked up) MLSHNTMMKQRKQQATAIMKEVHGNDVDGMDLGKKVSIPRDIMLEELSHLSNRGARLFKMRQRRSDKYTFENFQYQSRAQINHSIAMQNGKVDGSNLEGGSQQAPLTPPNTPDPRSPPNPDNIAPGYSGPLKEIPPEKFNTTAVPKYYQSPWEQAISNDPELLEALYPKLFKPEGKAELPDYRSFNRVATPFGGFEKASRMVKFKVPDFELLLLTDPRFMSFVNPLSGRRSFNRTPKGWISENIPIVITTEPTDDTTVPESEDL", "values": [{"measurement": "FRET ratio", "setting": "[5]", "result": 0.087}]}
{"molecule": "KYKSFNRTAMPYGGY (peptide, UniProt Q9NP98 217-231, looked up)", "note": "[FATZ-1 peptide comprising residues 217 to 231 (peptide array)]", "values": [{"measurement": "binding result", "setting": "α-actinin-2 [6]", "result": "binds"}]}
{"molecule": "FATZ-3 (natural protein, human, UniProt Q8TDC0 1-251, looked up) MIPKEQKGPVMAAMGDLTEPVPTLDLGKKLSVPQDLMMEELSLRNNRGSLLFQKRQRRVQKFTFELAASQRAMLAGSARRKVTGTAESGTVANANGPEGPNYRSELHIFPASPGASLGGPEGAHPAAAPAGCVPSPSALAPGYAEPLKGVPPEKFNHTAISKGYRCPWQEFVSYRDYQSDGRSHTPSPNDYRNFNKTPVPFGGPLVGGTFPRPGTPFIPEPLSGLELLRLRPSFNRVAQGWVRNLPESEEL", "values": [{"measurement": "stoichiometry N", "setting": "α-actinin-2 [4]", "result": "2 FATZ molecules per α-actinin-2 dimer"}]}
{"molecule": "Δ91-FATZ-1 (domain or fragment, human, UniProt Q9NP98 92-299, looked up) PTVGGQLGTAGQGFSYSKSNGRGGSQAGGSGSAGQYGSDQQHHLGSGSGAGGTGGPAGQAGRGGAAGTAGVGETGSGDQAGGEGKHITVFKTYISPWERAMGVDPQQKMELGIDLLAYGAKAELPKYKSFNRTAMPYGGYEKASKRMTFQMPKFDLGPLLSEPLVLYNQNLSNRPSFNRTPIPWLSSGEPVDYNVDIGIPLDGETEEL", "values": [{"measurement": "stoichiometry N", "setting": "[7]", "result": "2 Δ91-FATZ-1 per α-actinin-1 (2:1 complex)"}, {"measurement": "stoichiometry N", "setting": "rod-α-actinin-2", "result": "2 Δ91-FATZ-1 per rod-α-actinin-2 dimer"}, {"measurement": "stoichiometry N", "setting": "α-actinin-2 [4]", "result": "2 Δ91-FATZ-1 per α-actinin-2 dimer"}, {"measurement": "dH (first binding event)", "setting": "α-actinin-2 [3]", "result": -26.5, "unit": "kcal/mol"}]}
